Values quoted from earlier work, collected in article PMC1298930.

Target: PCNA2 (Sulfolobus solfataricus) (UniProt Q97Z84)
Sequence of UniProt Q97Z84 (Q97Z84 whole entry): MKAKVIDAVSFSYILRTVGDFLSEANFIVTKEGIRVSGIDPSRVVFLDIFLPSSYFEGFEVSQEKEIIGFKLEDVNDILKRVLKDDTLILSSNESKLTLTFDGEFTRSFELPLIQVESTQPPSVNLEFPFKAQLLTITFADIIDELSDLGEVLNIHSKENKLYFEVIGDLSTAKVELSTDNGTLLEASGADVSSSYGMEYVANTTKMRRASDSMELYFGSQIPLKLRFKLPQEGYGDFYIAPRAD

## PCNA1 (from UniProt P57766)
  Kd: 0.012 nM
